This is an account of results in publication PMC9133542, “Development of Novel CD47-Specific ADCs Possessing High Potency Against Non-Small Cell Lung Cancer in vitro and in vivo” (Frontiers in Oncology, 2022).

For test [1], the target named is CD47 on the cell membrane of human lung cancer cell lines A549, SPC-A-1 and 95D (Homo sapiens, UniProt Q08722). Briefly: cell-based or functional assay.
Test [2] deals with T1, CD47/ECD (Gln 19 - Pro 139, His Tag, ACROBiosystems) (Homo sapiens, UniProt Q08722-3).
T1 construct: also called CD47 antigen; CD47/ECD antigen; source: bought: ACROBiosystems (expressed from human 293 cells, HEK293)
Briefly: ELISA; CD47/ECD coated (0.2 ug per well, PBS pH 7.4, 16 h at 4°C), blocked with 2% BSA in PBST; IgG titrated at 11 two-fold dilutions in PBST with 0.5% BSA, 1 h; detected with HRP/anti-human IgG conjugate; EC50 by ED50 Plus v1.0; n = 3. The following applies: both partners purified.

T1 sequence (Q08722 19-139): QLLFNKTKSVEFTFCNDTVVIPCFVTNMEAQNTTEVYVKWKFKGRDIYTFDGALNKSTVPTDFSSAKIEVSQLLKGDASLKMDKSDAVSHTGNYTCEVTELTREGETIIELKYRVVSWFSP
Chain of CD47 on the cell membrane of human lung cancer cell lines A549, SPC-A-1 and 95D (Q08722 19-323): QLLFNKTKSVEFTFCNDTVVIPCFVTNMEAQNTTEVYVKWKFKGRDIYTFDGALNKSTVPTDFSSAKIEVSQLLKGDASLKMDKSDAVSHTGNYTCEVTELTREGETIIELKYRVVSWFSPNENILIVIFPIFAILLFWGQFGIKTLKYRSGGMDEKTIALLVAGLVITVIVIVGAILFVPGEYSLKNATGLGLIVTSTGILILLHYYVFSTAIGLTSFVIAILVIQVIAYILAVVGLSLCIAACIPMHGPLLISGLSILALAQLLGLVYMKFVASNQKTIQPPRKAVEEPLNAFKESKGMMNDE

B1: 7DC2-VCMMAE (7DC2 conjugated with maleimidocaproyl-valine-citrulline-monomethyl auristatin E) (antibody, V domains shown)
VH: QVQLQQSGPELVKPGASVKMSCKASGYTFTNYFMHWVKQKPGQGLEWIGYINPYNDGTKYNEKFKGKATLTSDKSSSTAYMELSSLTSEDSAVYYCTKGGRYSMDYWGQGTTLTVSS
VL: DVVMTQTPLSLPVRLGDEVSISCRSSQTIVFTNGNTYLEWYLQKPGQSPKLLIYKVSNRFSGVPDRFSGSGSGTDFTLTISRVEAEDLGIYYCFQGSHVPYTFGGGTKLELK
notes: as the heavy chain of m1 (mouse Fab part); human IgG1 Fc fragment; as the light chain of m1; Antibody-drug conjugate of m1; drug distribution 2, 4, 6 and 8 per antibody; also called 7DC-VCMMAE; source: 7DC2 from Expi293, reduced with TCEP, conjugated with VCMMAE, purified (Amicon-30 kDa); copies: 2 + 2
A word on the EC50: it is the concentration that produces a half-maximal response. As to B1, the “IC50 of cytotoxicity on 95D cells (relative cell viability, WST-1; 0.064-40 nM)” value in test [1] is roughly 40 nM. The EC50 in test [2] worked out at 0.15 nM.

B2: 7DC2 monoclonal antibody (chimeric anti-human CD47, mouse Fab plus human IgG1 Fc) (antibody, V domains shown)
VH: QVQLQQSGPELVKPGASVKMSCKASGYTFTNYFMHWVKQKPGQGLEWIGYINPYNDGTKYNEKFKGKATLTSDKSSSTAYMELSSLTSEDSAVYYCTKGGRYSMDYWGQGTTLTVSS
VL: DVVMTQTPLSLPVRLGDEVSISCRSSQTIVFTNGNTYLEWYLQKPGQSPKLLIYKVSNRFSGVPDRFSGSGSGTDFTLTISRVEAEDLGIYYCFQGSHVPYTFGGGTKLELK
notes: human IgG1 Fc fragment; mouse light chain of 7DC2; Chimeric IgG1; also called 7DC2 mAb; 7CD2; source: Expi293, transfected with light and heavy chain plasmids, purified; copies: 2 + 2
B2: the EC50 in test [2] came to 0.15 nM.

B3: 7DC4-VCMMAE (7DC4 conjugated with maleimidocaproyl-valine-citrulline-monomethyl auristatin E) (antibody, V domains shown)
VH: QVQLKQSGAELVQPGASVKLSCKASGYTFTNYYMYWLRQRPGQGLEWIGEINPSNGGTDFNEKFKSKATLTVDKSSSTAFMQLSSLTSDDSAVYYCARGGFTMDYWGQGTTVTVSS
VL: DVVMTQTPLSLPVSLGDQASISCRSSQSLVHSNGNTYLHWYLQKPGQSPKLLIYKVSNRFSGVPDRFSGSGSGTDFTLKISRVEAEDLGVYFCSQSTHVPLTFGAGTKLELK
notes: as the heavy chain of m2 (mouse Fab part); human IgG1 Fc fragment; as the light chain of m2; Antibody-drug conjugate of m2; drug distribution 2, 4, 6 and 8 per antibody; also called 7DC4-CVMMAE; 7DC4-MMAE; source: 7DC4 from Expi293, reduced with TCEP, conjugated with VCMMAE, purified (Amicon-30 kDa); copies: 2 + 2
Take B3: the “IC50 of cytotoxicity on 95D cells (relative cell viability, WST-1; 0.064-40 nM)” value in test [1] was roughly 40 nM. Moreover, the EC50 in test [2] was found to be 0.13 nM.

B4: 7DC4 monoclonal antibody (chimeric anti-human CD47, mouse Fab plus human IgG1 Fc) (antibody, V domains shown)
VH: QVQLKQSGAELVQPGASVKLSCKASGYTFTNYYMYWLRQRPGQGLEWIGEINPSNGGTDFNEKFKSKATLTVDKSSSTAFMQLSSLTSDDSAVYYCARGGFTMDYWGQGTTVTVSS
VL: DVVMTQTPLSLPVSLGDQASISCRSSQSLVHSNGNTYLHWYLQKPGQSPKLLIYKVSNRFSGVPDRFSGSGSGTDFTLKISRVEAEDLGVYFCSQSTHVPLTFGAGTKLELK
notes: human IgG1 Fc fragment; mouse light chain of 7DC4; Chimeric IgG1; also called 7DC4 mAb; 7CD4; source: Expi293, transfected with light and heavy chain plasmids, purified; copies: 2 + 2
As to B4, in test [2], the EC50 turned out to be 0.13 nM.
